Experimental data as given in US20110300138A1 (published 2011).

What was measured:
[1] = molecular target: human TSH receptor (full length, wild type) expressed on CHO cells (human) (UniProt P16473); assay: cell-based or functional assay
[2] = molecular target: human TSHR (thyroid stimulating hormone receptor) expressed in transfected CHO cells (human) (UniProt P16473); assay: cell-based or functional assay
[3] = molecular target: TSHR260-alkaline phosphatase (TSHR260-AP) (human) (UniProt P05187); assay: TSHR260-AP bridge ELISA, full length TSHR on wells; 100 µg/mL, diluted in HBD
[4] = molecular target: TSHR260-alkaline phosphatase (TSHR260-AP) (human) (UniProt P05187); assay: TSHR260-AP bridge ELISA, full length TSHR on wells; 1 µg/mL, diluted in assay buffer
[5] = molecular target: TSHR260-alkaline phosphatase (TSHR260-AP) (human) (UniProt P05187); assay: TSHR260-AP bridge ELISA, full length TSHR on wells; 0.01 µg/mL, diluted in assay buffer
[6] = molecular target: TSHR260-AP (human); assay: TSHR260-AP bridge ELISA (full length TSHR on wells, TSHR260-AP in solution); IgG 1 µg/mL diluted in HBD serum
[7] = molecular target: TSHR260-AP (human); assay: TSHR260-AP bridge ELISA (full length TSHR on wells, TSHR260-AP in solution); IgG 250 µg/mL diluted in HBD serum
[8] = molecular target: TSHR260-AP (human); assay: TSHR260-AP bridge ELISA (full length TSHR on wells, TSHR260-AP in solution); IgG 0.01 µg/mL diluted in HBD serum
[9] = molecular target: TSHR260-AP (human); assay: TSHR260-AP bridge ELISA (full length TSHR on wells, TSHR260-AP in solution); IgG 0.05 µg/mL diluted in HBD serum
[10] = molecular target: TSHR260-AP (human); assay: TSHR260-AP bridge ELISA (full length TSHR on wells, TSHR260-AP in solution); IgG 0.1 µg/mL diluted in assay buffer
[11] = molecular target: TSHR260-AP (human); assay: TSHR260-AP bridge ELISA (full length TSHR on wells, TSHR260-AP in solution); IgG 0.5 µg/mL diluted in assay buffer
[12] = molecular target: TSHR260-AP (human); assay: TSHR260-AP bridge ELISA (full length TSHR on wells, TSHR260-AP in solution); IgG 0.01 µg/mL diluted in assay buffer
[13] = molecular target: TSHR260-AP (human); assay: TSHR260-AP bridge ELISA (full length TSHR on wells, TSHR260-AP in solution); IgG 0.05 µg/mL diluted in assay buffer

Chain of M22 IgG (antibody) (VH): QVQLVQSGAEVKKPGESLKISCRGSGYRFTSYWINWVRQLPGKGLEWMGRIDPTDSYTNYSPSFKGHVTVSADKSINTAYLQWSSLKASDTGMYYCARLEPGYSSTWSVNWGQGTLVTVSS
Chain of M22 IgG (antibody) (V domain): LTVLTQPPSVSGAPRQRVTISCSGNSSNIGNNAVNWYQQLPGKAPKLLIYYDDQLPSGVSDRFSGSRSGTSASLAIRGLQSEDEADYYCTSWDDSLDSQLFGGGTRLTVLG

Substance: M22 IgG (antibody)
- Cyclic AMP concentration; 3 ng/mL M22 IgG alone [1]: 33.1 pmol/mL
- Cyclic AMP concentration; 3 ng/mL M22 IgG [2]: 44.4 pmol/mL
- Mean absorbance at 405 nm (absorbance at 405 nm) [3]: 0.851
- Mean absorbance at 405 nm (absorbance at 405 nm) [4]: 0.821
- Mean absorbance at 405 nm (absorbance at 405 nm) [5]: 0.101
- Mean absorbance at 405 nm (absorbance at 405 nm) [6]: 0.726
- Mean absorbance at 405 nm (absorbance at 405 nm) [7]: 0.833
- Mean absorbance at 405 nm (absorbance at 405 nm) [8]: 0.03
- Mean absorbance at 405 nm (absorbance at 405 nm) [9]: 0.204
- Mean absorbance at 405 nm (absorbance at 405 nm) [10]: 0.653
- Mean absorbance at 405 nm (absorbance at 405 nm) [11]: 0.776
- Mean absorbance at 405 nm (absorbance at 405 nm) [12]: 0.101
- Mean absorbance at 405 nm (absorbance at 405 nm) [13]: 0.484
